Legend:
[1] = system: T1, 7-methoxycoumarin-Tyr-Val-Ala-Pro-(2,4-dinitrophenyl)Lys
T1 sequence: YVAPK

[2] = molecular target: human recombinant (hr) ACE2 (human) (UniProt Q9BYF1); experiment: cell-based or functional assay
Sequence of human recombinant (hr) ACE2 (human) (Q9BYF1 18-740 limits assumed): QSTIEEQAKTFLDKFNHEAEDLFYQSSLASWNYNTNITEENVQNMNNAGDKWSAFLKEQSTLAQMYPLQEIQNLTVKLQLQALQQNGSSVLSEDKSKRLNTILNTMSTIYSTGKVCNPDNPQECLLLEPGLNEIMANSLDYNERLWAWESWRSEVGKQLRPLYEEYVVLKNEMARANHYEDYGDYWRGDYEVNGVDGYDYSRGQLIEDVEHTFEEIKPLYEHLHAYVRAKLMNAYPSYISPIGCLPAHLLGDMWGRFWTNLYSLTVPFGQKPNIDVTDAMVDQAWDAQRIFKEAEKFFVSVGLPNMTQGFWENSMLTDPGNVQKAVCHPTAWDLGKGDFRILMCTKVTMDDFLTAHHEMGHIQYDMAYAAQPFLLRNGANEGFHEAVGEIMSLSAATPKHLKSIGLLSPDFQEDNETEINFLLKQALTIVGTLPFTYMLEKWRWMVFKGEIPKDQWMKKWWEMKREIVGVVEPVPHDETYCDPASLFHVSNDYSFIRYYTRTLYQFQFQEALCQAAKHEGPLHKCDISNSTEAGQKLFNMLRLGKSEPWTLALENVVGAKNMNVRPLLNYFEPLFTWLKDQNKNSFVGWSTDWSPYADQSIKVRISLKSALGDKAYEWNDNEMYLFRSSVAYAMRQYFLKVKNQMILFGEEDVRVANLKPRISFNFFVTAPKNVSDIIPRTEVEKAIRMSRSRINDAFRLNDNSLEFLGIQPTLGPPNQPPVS

quenching of the fluorescence signal from cleavage of 7-Mca-YVADAPK(Dnp) by hrACE2 (enzyme inhibition) [2]	Substance	fluorescence from cleavage of the substrate, hACE2 spiked into kidney extract of an ACE2-knockout mouse [1]
	human recombinant (hr) ACE2	the fluorescence signal was recovered in a dose dependent manner, with a linear relationship (r=0.990, p<0.001) in the range of 0.4 to 50 ng ACE2 protein/well
100 nmol/L	DX600 (peptide)	
